Measurements taken from patent US11994512B2, “Single-cell genomic methods to generate ex vivo cell systems that recapitulate in vivo biology with improved fidelity” (Massachusetts Institute of Technology, priority 2018, dated 2024).

Test system: intracellular proteome of ENR+CD and ENR organoids
Assay: LC-MS/MS TMT proteomics of ENR+CD versus ENR organoids
Type: cell-based, C57BL/6 mice
Settings: for Average logFC / M1-1 Log2 Median Normalized / M1-2 Log2 Median Normalized / M2-1 Log2 Median Normalized / M2-2 Log2 Median Normalized: protein abundance, ENR+CD versus ENR organoids; for Average logFC: aggregate of the four sample pairs; for M1-1 Log2 Median Normalized: replicate M1-1; for M1-1 Log2 Median Normalized / M1-2 Log2 Median Normalized / M2-1 Log2 Median Normalized / M2-2 Log2 Median Normalized: log2 ratio; for M1-2 Log2 Median Normalized: replicate M1-2; for M2-1 Log2 Median Normalized: replicate M2-1; for M2-2 Log2 Median Normalized: replicate M2-2; for change: up = enriched in ENR+CD, down = enriched in ENR, FDR<0.05 and log fold change cut-off

Row | Molecule | Average logFC | M1-1 Log2 Median Normalized | M1-2 Log2 Median Normalized | M2-1 Log2 Median Normalized | M2-2 Log2 Median Normalized | change
1 | Q03157 (protein, UniProt Q03157 1-654, looked up, full-length) MGPTSPAARGQGRRWRPPPLPLLLPLSLLLLRAQLAVGNLAVGSPSAAEAPGSAQVAGLCGRLTLHRDLRTGRWEPDPQRSRRCLLDPQRVLEYCRQMYPELHIARVEQAAQAIPMERWCGGTRSGRCAHPHHEVVPFHCLPGEFVSEALLVPEGCRFLHQERMDQCESSTRRHQEAQEACSSQGLILHGSGMLLPCGSDRFRGVEYVCCPPPATPNPSGMAAGDPSTRSWPLGGRAEGGEDEEEVESFPQPVDDYFVEPPQAEEEEEEEEERAPPPSSHTPVMVSRVTPTPRPTDGVDVYFGMPGEIGEHEGFLRAKMDLEERRMRQINEVMREWAMADSQSKNLPKADRQALNEHFQSILQTLEEQVSGERQRLVETHATRVIALINDQRRAALEGFLAALQGDPPQAERVLMALRRYLRAEQKEQRHTLRHYQHVAAVDPEKAQQMRFQVQTHLQVIEERMNQSLGLLDQNPHLAQELRPQIQELLLAEHLGPSELDASVPGSSSEDKGSLQPPESKDDPPVTLPKGSTDQESSSSGREKLTPLEQYEQKVNASAPRGFPFHSSDIQRDELAPSGTGVSREALSGLLIMGAGGGSLIVLSLLLLRKKKPYGTISHGVVEVDPMLTLEEQQLRELQRHGYENPTYRFLEERP | 1.178 | 1.177 | 0.671 | 1.2695 | 1.559 | up
2 | P98063 (protein, UniProt P98063 1-991, looked up, full-length) MPGVARPPLPLLSLPLLLLLLLLPRAGRPLDLADYTYDLGEEDAPELLNYKDPCKAAAFLGDIALDEEDLRAFQVQQAAVLRQQTARRPSIKAAGNSSALGGQGTSGQPQRESRGRWRGRPRSRRAATSRPERVWPDGVIPFVIGGNFTGSQRAVFRQAMRHWEKHTCVTFLERTDEDSYIVFTYRPCGCCSYVGRRGGGPQAISIGKNCDKFGIVVHELGHVIGFWHEHTRPDRDRHVSIVRENIQPGQEYNFLKMEVQEVESLGETYDFDSIMHYARNTFSRGIFLDTIVPKYEVNGVKPSIGQRTRLSKGDIAQARKLYKCPACGETLQDSTGNFSSPEYPNGYSAHMHCVWRISVTPGEKIILNFTSMDLYRSRLCWYDYVEVRDGFWRKAPLRGRFCGGKLPEPIVSTDSRLWVEFRSSSNWVGKGFFAVYEAICGGDVKKDNGHIQSPNYPDDYRPSKVCIWRIQVSEGFHVGLTFQSFEIERHDSCAYDYLEVRDGHSESSNLIGRYCGYEKPDDIKSTSSRLWLKFVSDGSINKAGFAVNFFKEVDECSRPNRGGCEQRCLNTLGSYKCSCDPGYELAPDKRRCEAACGGFLTKLNGSITSPGWPKEYPPNKNCIWQLVAPTQYRISLQFDFFETEGNDVCKYDFVEVRSGLTADSKLHGKFCGSEKPEVITSQYNNMRVEFKSDNTVSKKGFKAHFFSDKDECSKDNGGCQQDCVNTFGSYECQCRSGFVLHDNKHDCKEAGCEHKVTSTSGTITSPNWPDKYPSKKECTWAISSTPGHRVKLTFVEMDIESQPECAYDHLEVFDGRDAKAPVLGRFCGSKKPEPVLATGNRMFLRFYSDNSVQRKGFQASHSTECGGQVRADVKTKDLYSHAQFGDNNYPGGVDCEWVIVAEEGYGVELVFQTFEVEEETDCGYDYIELFDGYDSTAPRLGRYCGSGPPEEVYSAGDSVLVKFHSDDTISKKGFHLRYTSTKFQDTLHSRK | 1.311 | 1.296 | 1.342 | 1.2215 | 1.383 | up
3 | Q05186 (protein, UniProt Q05186 1-325, looked up, full-length) MARGGRLGLALGLLLALVLALRAKPTVRKERVVRPDSELGERPPEDNQSFQYDHEAFLGKEDSKTFDQLSPDESKERLGKIVDRIDSDGDGLVTTEELKLWIKRVQKRYIYDNVAKVWKDYDRDKDEKISWEEYKQATYGYYLGNPAEFHDSSDHHTFKKMLPRDERRFKASDLDGDLTATREEFTAFLHPEEFEHMKEIVVLETLEDIDKNGDGFVDQDEYIADMFSHEDNGPEPDWVLSEREQFNDFRDLNKDGKLDKDEIRHWILPQDYDHAQAEARHLVYESDKNKDEMLTKEEILDNWNMFVGSQATNYGEDLTKNHDEL | 1.307 | 1.602 | 1.092 | 1.0235 | 1.511 | up
4 | Q07797 (protein, UniProt Q07797 1-577, looked up, full-length) MALLWLLSVFLLVPGTQGTEDGDMRLVNGASANEGRVEIFYRGRWGTVCDNLWNLLDAHVVCRALGYENATQALGRAAFGPGKGPIMLDEVECTGTESSLASCRSLGWMVSRCGHEKDAGVVCSNDTTGLHILDLSGELSDALGQIFDSQQGCDLFIQVTGQGYEDLSLCAHTLILRTNPEAQALWQVVGSSVIMRVDAECMPVVRDFLRYFYSRRIEVSMSSVKCLHKLASAYGATELQDYCGRLFATLLPQDPTFHTPLDLYAYARATGDSMLEDLCVQFLAWNFEPLTQSESWSAVPTTLIQALLPKSELAVSSELDLLKAVDQWSTETIASHEDIERLVEQVRFPMMLPQELFELQFNLSLYQDHQALFQRKTMQALEFHTVPVEVLAKYKGLNLTEDTYKPRLYTSSTWSSLVMASTWRAQRYEYNRYNQLYTYGYGSVARYNSYQSFQTPQHPSFLFKDKQISWSATYLPTMQSCWNYGFSCTSNELPVLGLTTSSYSNPTIGYENRVLILCGGYSVVDVTSFEGSKAPIPTALDTNSSKTPSLFPCASGAFSSFRVVIRPFYLTNSTDMV | 1.146 | 1.212 | 1.255 | 1.1065 | 1.011 | up
5 | Q00623 (protein, UniProt Q00623 1-264, looked up, full-length) MKAVVLAVALVFLTGSQAWHVWQQDEPQSQWDKVKDFANVYVDAVKDSGRDYVSQFESSSLGQQLNLNLLENWDTLGSTVSQLQERLGPLTRDFWDNLEKETDWVRQEMNKDLEEVKQKVQPYLDEFQKKWKEDVELYRQKVAPLGAELQESARQKLQELQGRLSPVAEEFRDRMRTHVDSLRTQLAPHSEQMRESLAQRLAELKSNPTLNEYHTRAKTHLKTLGEKARPALEDLRHSLMPMLETLKTQVQSVIDKASETLTAQ | −2.027 | −1.311 | −2.229 | −2.6175 | −1.952 | down
6 | Q08652 (protein, UniProt Q08652 1-134, looked up, full-length) MTKDQNGTWEMESNENFEGYMKALDIDFATRKIAVRLTQTKIITQDGDNFKTKTNSTFRNYDLDFTVGVEFDEHTKGLDGRHVKTLVTWEGNTLVCVQKGEKENRGWKQWVEGDKLYLELTCGDQVCRQVFKKK | −1.48 | −1.364 | −2.41 | −1.7785 | −0.366 | down
